Experimental data reported in publication PMC8307404, “Crystal Structure-Guided Design of Bisubstrate Inhibitors and Photoluminescent Probes for Protein Kinases of the PIM Family” (Molecules, 2021).
Square brackets hold non-standard residues; d marks the D form. Peptide text beside a SMILES is read from it. * marks the point of attachment. X3 = O=C(CCCCCNCc1nc2c(sc3cc(Br)cnc32)c(=O)[nH]1)*

Tests used:
Assay in all cases: Kinase profiling (radiometric filter-binding)
Assay type in all cases: biochemical
ERK5 = ERK5 (Homo sapiens, UniProt Q13164); conditions: ERK5, 1 µM inhibitor; read-out: Residual activity, %
How it was run: (§1)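 Each compound, at 1 µM final, is screened against human protein kinases in a radiometric filter-binding format. ATP is set at or under the KM of each kinase. Values give retained activity relative to a control lacking inhibitor.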

MNK2 = MNK2 (Homo sapiens, UniProt Q9HBH9); conditions: MNK2, 1 µM inhibitor; read-out: Residual activity, %
MNK2, sequence (Q9HBH9 whole entry): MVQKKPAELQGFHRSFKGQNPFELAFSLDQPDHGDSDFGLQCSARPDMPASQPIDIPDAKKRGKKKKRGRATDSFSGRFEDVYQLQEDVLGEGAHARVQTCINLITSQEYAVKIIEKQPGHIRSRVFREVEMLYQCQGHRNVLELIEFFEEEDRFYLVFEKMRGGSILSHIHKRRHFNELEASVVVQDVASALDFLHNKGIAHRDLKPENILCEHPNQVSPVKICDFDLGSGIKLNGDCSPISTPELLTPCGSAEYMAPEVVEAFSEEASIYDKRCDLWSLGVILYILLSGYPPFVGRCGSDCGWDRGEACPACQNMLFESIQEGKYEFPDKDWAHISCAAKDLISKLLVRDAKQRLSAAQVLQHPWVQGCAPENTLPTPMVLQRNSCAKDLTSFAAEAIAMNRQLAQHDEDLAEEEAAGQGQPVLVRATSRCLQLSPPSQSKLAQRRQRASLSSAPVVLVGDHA
How it was run: as §1

JAK2 = JAK2 (Homo sapiens, UniProt O60674); conditions: JAK2, 1 µM inhibitor; read-out: Residual activity, %
JAK2, sequence (O60674 whole entry): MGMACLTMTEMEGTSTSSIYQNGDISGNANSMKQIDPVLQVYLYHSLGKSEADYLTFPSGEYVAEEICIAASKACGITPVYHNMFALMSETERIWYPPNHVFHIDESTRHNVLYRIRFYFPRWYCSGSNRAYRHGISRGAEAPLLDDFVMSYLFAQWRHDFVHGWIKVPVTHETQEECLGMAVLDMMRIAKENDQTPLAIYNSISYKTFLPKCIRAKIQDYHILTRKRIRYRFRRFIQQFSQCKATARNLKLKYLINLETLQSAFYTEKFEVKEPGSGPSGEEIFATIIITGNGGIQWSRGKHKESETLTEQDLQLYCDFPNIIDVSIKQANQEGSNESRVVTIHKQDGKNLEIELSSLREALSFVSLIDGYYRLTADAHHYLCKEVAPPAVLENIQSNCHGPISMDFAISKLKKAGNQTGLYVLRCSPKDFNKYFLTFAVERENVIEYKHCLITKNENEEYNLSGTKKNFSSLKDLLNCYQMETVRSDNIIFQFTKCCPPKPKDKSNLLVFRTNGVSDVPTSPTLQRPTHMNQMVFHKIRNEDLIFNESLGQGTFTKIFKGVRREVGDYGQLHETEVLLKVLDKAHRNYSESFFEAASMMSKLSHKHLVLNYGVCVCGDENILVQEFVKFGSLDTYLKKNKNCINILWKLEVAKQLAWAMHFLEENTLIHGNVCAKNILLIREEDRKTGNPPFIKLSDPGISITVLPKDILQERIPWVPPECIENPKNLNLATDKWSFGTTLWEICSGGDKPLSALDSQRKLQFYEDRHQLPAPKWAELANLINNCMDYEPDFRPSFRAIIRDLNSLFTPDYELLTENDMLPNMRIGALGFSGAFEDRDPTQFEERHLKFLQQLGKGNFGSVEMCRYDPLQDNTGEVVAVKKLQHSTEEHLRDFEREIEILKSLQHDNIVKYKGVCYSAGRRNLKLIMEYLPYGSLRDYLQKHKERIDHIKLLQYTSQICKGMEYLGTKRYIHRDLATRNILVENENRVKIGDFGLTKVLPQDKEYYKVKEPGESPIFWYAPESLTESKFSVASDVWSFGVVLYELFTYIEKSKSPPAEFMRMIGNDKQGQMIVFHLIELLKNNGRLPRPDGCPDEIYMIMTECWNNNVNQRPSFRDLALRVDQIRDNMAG
How it was run: as §1

SIK2 = SIK2 (Homo sapiens, UniProt Q9H0K1); conditions: SIK2, 1 µM inhibitor; read-out: Residual activity, %
How it was run: as §1

PDGFRA = PDGFRA (Homo sapiens, UniProt P16234); conditions: 1 µM inhibitor, read-out: Residual activity, %
PDGFRA, sequence (P16234 24-1089): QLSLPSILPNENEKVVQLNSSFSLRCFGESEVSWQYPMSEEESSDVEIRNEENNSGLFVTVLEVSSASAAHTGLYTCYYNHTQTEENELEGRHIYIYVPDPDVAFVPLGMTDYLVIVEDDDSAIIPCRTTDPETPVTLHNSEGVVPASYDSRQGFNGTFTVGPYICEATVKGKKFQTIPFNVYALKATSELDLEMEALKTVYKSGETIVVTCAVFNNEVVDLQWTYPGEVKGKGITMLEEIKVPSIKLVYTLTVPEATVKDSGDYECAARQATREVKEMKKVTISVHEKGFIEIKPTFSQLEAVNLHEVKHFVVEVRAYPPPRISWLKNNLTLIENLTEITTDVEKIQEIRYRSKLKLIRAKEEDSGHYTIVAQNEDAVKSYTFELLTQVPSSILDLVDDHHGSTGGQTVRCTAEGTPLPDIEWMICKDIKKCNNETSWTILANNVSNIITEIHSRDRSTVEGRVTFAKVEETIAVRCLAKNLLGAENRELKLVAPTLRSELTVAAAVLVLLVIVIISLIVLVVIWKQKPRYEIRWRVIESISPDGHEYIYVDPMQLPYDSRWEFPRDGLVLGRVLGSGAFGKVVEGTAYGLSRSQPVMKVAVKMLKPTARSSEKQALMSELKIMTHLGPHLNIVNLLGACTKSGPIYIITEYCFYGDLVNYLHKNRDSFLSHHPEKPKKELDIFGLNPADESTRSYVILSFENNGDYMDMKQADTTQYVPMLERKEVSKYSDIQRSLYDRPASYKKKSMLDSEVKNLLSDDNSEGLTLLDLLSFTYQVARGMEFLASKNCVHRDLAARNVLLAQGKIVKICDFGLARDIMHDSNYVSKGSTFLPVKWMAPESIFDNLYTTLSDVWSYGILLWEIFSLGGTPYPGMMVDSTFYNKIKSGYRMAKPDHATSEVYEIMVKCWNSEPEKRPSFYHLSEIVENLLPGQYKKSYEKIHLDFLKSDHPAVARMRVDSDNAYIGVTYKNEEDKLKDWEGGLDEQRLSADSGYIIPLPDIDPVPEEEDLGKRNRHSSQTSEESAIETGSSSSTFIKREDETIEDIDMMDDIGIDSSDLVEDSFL
How it was run: as §1

BRSK2 = target: T1, BRSK2 (Homo sapiens, UniProt Q8IWQ3); conditions: BRSK2, 1 µM inhibitor; read-out: Residual activity, %
T1 sequence (Q8IWQ3 1-736): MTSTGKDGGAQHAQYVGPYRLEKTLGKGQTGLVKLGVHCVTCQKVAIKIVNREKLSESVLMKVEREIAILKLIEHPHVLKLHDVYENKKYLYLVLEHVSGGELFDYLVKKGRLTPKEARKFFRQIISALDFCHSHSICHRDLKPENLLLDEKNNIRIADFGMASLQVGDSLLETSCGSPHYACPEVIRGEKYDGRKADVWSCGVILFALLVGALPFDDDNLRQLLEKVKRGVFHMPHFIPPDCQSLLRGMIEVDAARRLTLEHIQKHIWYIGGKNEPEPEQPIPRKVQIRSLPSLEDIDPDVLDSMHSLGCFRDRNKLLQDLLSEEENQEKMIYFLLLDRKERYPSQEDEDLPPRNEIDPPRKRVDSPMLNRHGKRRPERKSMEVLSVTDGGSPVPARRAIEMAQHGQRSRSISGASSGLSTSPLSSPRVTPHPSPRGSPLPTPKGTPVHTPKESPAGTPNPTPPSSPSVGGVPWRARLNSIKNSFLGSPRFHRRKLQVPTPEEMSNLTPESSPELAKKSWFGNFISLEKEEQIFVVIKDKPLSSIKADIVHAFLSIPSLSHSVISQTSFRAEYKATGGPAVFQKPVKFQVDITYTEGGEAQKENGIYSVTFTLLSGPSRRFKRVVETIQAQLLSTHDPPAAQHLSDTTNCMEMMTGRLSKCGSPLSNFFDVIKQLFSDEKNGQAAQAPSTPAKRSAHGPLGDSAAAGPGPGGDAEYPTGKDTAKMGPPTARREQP
How it was run: as §1

TESK1 = TESK1 (Homo sapiens, UniProt Q15569); conditions: TESK1, 1 µM inhibitor; read-out: Residual activity, %
How it was run: as §1

STK33 = STK33 (Homo sapiens, UniProt Q9BYT3); conditions: STK33, 1 µM inhibitor; read-out: Residual activity, %
STK33, sequence (Q9BYT3 whole entry): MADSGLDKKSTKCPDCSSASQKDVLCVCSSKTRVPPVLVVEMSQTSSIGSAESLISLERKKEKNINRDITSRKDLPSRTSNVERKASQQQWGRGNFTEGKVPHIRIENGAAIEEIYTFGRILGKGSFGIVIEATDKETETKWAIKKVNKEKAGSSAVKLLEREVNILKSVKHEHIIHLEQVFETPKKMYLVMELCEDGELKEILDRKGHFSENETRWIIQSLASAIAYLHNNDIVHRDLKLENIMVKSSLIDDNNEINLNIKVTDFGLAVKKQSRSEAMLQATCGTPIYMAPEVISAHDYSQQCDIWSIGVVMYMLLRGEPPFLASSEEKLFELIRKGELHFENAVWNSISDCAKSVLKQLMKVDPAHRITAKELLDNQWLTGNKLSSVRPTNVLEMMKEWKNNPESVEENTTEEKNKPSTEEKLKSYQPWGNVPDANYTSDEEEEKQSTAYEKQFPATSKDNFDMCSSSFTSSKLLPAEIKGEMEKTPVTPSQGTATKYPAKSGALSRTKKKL
How it was run: as §1

SIK3 = SIK3 (Homo sapiens, UniProt Q9Y2K2); conditions: SIK3, 1 µM inhibitor; read-out: Residual activity, %
SIK3, sequence (Q9Y2K2 whole entry): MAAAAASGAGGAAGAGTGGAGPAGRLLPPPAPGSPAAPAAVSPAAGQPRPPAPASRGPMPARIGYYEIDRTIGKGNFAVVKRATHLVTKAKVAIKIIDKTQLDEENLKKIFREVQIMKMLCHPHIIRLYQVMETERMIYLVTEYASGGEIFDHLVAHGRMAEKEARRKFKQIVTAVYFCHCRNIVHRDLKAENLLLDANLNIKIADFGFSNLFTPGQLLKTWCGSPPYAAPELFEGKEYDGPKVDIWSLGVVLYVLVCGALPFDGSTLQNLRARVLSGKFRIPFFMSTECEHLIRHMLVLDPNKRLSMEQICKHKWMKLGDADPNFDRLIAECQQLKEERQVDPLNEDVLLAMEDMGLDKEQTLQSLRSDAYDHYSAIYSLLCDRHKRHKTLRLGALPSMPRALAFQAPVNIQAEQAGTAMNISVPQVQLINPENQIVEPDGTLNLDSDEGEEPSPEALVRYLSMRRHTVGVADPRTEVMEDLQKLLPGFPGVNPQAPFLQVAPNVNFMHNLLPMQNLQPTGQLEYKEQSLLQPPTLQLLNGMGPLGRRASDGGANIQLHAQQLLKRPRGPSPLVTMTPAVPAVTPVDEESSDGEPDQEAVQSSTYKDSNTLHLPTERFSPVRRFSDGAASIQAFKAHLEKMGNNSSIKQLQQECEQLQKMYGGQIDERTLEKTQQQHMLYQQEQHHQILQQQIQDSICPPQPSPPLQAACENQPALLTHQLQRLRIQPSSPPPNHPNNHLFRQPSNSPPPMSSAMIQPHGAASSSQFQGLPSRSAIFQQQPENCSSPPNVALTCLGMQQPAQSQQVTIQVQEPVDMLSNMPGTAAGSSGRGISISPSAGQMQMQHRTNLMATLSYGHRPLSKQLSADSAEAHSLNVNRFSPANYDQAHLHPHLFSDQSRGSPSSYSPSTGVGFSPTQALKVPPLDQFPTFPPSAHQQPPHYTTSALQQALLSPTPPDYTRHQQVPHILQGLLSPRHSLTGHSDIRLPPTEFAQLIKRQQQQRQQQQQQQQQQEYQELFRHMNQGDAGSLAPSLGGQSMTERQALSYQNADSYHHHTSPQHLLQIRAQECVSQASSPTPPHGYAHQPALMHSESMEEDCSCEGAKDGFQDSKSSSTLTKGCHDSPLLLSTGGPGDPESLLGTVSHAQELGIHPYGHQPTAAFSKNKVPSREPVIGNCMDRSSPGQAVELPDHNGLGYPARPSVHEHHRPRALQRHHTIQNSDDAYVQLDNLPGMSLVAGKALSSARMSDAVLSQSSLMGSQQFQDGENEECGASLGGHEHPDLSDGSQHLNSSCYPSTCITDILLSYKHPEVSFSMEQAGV
How it was run: as §1

JNK3 = JNK3 (Homo sapiens, UniProt P53779); conditions: JNK3, 1 µM inhibitor; read-out: Residual activity, %
How it was run: as §1

MAP4K3 = target: T2, MAP4K3 (Homo sapiens, UniProt Q8IVH8); conditions: MAP4K3, 1 µM inhibitor; read-out: Residual activity, %
T2 sequence (Q8IVH8 1-894): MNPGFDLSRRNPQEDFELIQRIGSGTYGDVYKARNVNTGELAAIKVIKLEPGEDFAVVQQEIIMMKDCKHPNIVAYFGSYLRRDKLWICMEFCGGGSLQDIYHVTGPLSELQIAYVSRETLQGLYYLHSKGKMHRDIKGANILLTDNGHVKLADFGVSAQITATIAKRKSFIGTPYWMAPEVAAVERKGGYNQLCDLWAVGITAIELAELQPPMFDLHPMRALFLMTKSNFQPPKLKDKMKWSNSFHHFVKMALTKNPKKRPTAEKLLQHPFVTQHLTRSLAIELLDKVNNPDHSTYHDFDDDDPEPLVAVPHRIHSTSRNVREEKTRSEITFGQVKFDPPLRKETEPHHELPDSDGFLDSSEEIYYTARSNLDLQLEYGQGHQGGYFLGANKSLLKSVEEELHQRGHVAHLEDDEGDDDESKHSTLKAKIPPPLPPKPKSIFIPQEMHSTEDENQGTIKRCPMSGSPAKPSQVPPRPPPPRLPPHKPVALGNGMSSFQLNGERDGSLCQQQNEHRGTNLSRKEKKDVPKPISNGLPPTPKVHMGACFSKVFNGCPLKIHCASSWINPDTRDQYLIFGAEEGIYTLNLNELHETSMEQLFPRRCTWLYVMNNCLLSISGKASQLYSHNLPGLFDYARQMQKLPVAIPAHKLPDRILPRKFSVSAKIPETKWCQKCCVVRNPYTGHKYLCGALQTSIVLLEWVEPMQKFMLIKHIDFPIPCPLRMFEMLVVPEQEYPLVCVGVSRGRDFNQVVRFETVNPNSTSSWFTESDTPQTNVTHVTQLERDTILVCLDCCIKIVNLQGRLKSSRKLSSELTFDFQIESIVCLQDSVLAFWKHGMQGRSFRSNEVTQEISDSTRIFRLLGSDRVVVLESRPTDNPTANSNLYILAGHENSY
How it was run: as §1

GSK3 = GSK3 (Homo sapiens, UniProt P49841); conditions: GSK3 (Greek letter lost), 1 µM inhibitor; read-out: Residual activity, %
GSK3, sequence (P49841 whole entry): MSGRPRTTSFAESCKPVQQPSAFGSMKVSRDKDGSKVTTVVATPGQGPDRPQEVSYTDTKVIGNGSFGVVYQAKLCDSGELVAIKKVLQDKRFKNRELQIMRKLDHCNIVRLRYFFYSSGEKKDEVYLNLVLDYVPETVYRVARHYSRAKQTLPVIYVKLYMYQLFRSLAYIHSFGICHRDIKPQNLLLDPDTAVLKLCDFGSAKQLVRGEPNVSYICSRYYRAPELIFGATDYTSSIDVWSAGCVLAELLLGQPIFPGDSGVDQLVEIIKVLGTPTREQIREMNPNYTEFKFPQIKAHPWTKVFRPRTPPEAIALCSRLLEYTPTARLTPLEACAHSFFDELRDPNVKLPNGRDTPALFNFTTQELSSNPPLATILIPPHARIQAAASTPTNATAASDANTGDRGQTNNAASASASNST
How it was run: as §1

Compound | remaining activity at 1 µM (ERK5) [%] | remaining activity at 1 µM (MNK2) [%] | remaining activity at 1 µM (JAK2) [%] | remaining activity at 1 µM (SIK2) [%] | remaining activity at 1 µM (PDGFRA) [%] | remaining activity at 1 µM (BRSK2) [%] | remaining activity at 1 µM (TESK1) [%] | remaining activity at 1 µM (STK33) [%] | remaining activity at 1 µM (SIK3) [%] | remaining activity at 1 µM (JNK3) [%] | remaining activity at 1 µM (MAP4K3) [%] | remaining activity at 1 µM (GSK3) [%]
N=C(N)NCCC[C@@H](NC(=O)CNC(=O)[C@@H](CCCNC(=N)N)NC(=O)[C@@H](CCCNC(=N)N)NC(=O)CCCCCCCNCc1nc2c(sc3cc(Br)cnc32)c(=O)[nH]1)C(=O)N[C@H](CCCCN)C(N)=O [Compound 1, BPTP-Aoc-(D-Arg)2-Gly-D-Arg-D-Lys-NH2] | 111 ± 9 | 80 ± 3 | 93 ± 14 | 110 ± 5 | 115 ± 2 | 124 ± 12 | 111 ± 11 | 110 ± 2 | 106 ± 2 | 92 | 119 ± 1 | 110 ± 12
N=C(N)NCCC[C@@H](NC(=O)CCCCCNCc1nc2c(sc3cc(Br)cnc32)c(=O)[nH]1)C(=O)N[C@H](CCCNC(=N)N)C(=O)N[C@H](CCCNC(=N)N)C(=O)N[C@H](CCCNC(=N)N)C(=O)N[C@H](CCCNC(=N)N)C(=O)N[C@H](CCCNC(=N)N)C(=O)N[C@H](CCCCN)C(N)=O [ARC-3126, BPTP-Ahx-(D-Arg)6-D-Lys-NH2] (X3-[dR][dR][dR][dR][dR][dR][dK]-NH2) | 92 ± 1 | 84 ± 17 | 116 ± 9 | 109 ± 6 | 116 ± 3 | 100 ± 9 | 99 ± 14 | 107 ± 6 | 117 ± 15 | 121 ± 5 | 81 ± 7 | 80
N=C(N)NCCC[C@@H](NC(=O)CCCCCNC(=O)Cn1cnc2c(I)c(I)c(I)c(I)c21)C(=O)N[C@H](CCCNC(=N)N)C(=O)N[C@H](CCCNC(=N)N)C(=O)N[C@H](CCCNC(=N)N)C(=O)N[C@H](CCCNC(=N)N)C(=O)N[C@H](CCCNC(=N)N)C(=O)N[C@H](CCCCN)C(N)=O [ARC-3125, TIBI-CH2-C(=O)-Ahx-(D-Arg)6-D-Lys-NH2] | 47 ± 1 | 19 ± 4 | 115 ± 5 | 34 ± 4 | 97 | 107 ± 23 | 102 ± 3 | 84 ± 20 | 89 ± 7 | 120 ± 2 | 17 ± 1 | 140 ± 13
N=C(N)NCCC[C@@H](NC(=O)CNC(=O)[C@@H](CCCNC(=N)N)NC(=O)[C@@H](CCCNC(=N)N)NC(=O)CCCCCCCNCc1nc2c(sc3ccc(Br)cc32)c(=O)[nH]1)C(=O)N[C@H](CCCCN)C(N)=O [Compound 2, BBTP-Aoc-(D-Arg)2-Gly-D-Arg-D-Lys-NH2] | 77 ± 5 | 47 ± 2 | 82 ± 16 | 107 ± 10 | 101 ± 16 | 108 ± 12 | 106 ± 13 | 106 ± 3 | 97 ± 9 | 108 ± 3 | 118 ± 3 | 75 ± 8
N=C(N)NCCC[C@@H](NC(=O)CNC(=O)[C@@H](CCCNC(=N)N)NC(=O)[C@@H](CCCNC(=N)N)NC(=O)Cn1cc(CNCc2nc3c(sc4ccc(Br)cc43)c(=O)[nH]2)nn1)C(=O)N[C@H](CCCCN)C(N)=O [Compound 3, BBTP-Amt-(D-Arg)2-Gly-D-Arg-D-Lys-NH2] | 93 ± 4 | 96 ± 10 | 72 ± 21 | 68 ± 3 | 108 ± 4 | 96 ± 8 | 105 ± 1 | 91 | 66 ± 6 | 113 ± 22 | 105 ± 2 | 64 ± 8
